Laboratory results: publication PMC7618510, “The accessory protein MRAP2 directly interacts with melanocortin-3 receptor to enhance signaling” (Science signaling, 2025)

B1: mGluR2 (receptor, UniProt P31421 19-872, looked up)
chain: EGPAKKVLTLEGDLVLGGLFPVHQKGGPAEECGPVNEHRGIQRLEAMLFALDRINRDPHLLPGVRLGAHILDSCSKDTHALEQALDFVRASLSRGADGSRHICPDGSYATHSDAPTAVTGVIGGSYSDVSIQVANLLRLFQIPQISYASTSAKLSDKSRYDYFARTVPPDFFQAKAMAEILRFFNWTYVSTVASEGDYGETGIEAFELEARARNICVATSEKVGRAMSRAAFEGVVRALLQKPSARVAVLFTRSEDARELLAATQRLNASFTWVASDGWGALESVVAGSERAAEGAITIELASYPISDFASYFQSLDPWNNSRNPWFREFWEERFHCSFRQRDCAAHSLRAVPFEQESKIMFVVNAVYAMAHALHNMHRALCPNTTHLCDAMRPVNGRRLYKDFVLNVKFDAPFRPADTDDEVRFDRFGDGIGRYNIFTYLRAGSGRYRYQKVGYWAEGLTLDTSFIPWASPSAGPLPASRCSEPCLQNEVKSVQPGEVCCWLCIPCQPYEYRLDEFTCADCGLGYWPNASLTGCFELPQEYIRWGDAWAVGPVTIACLGALATLFVLGVFVRHNATPVVKASGRELCYILLGGVFLCYCMTFVFIAKPSTAVCTLRRLGLGTAFSVCYSALLTKTNRIARIFGGAREGAQRPRFISPASQVAICLALISGQLLIVAAWLVVEAPGTGKETAPERREVVTLRCNHRDASMLGSLAYNVLLIALCTLYAFKTRKCPENFNEAKFIGFTMYTTCIIWLAFLPIFYVTSSDYRVQTTTMCVSVSLSGSVVLGCLFAPKLHIILFQPQKNVVSHRAPTSRFGSAAPRASANLGQGSGSQFVPTVCNGREVVDSTTSSL
notes: metabotropic glutamate receptor 2 (mGluR2); also called dimeric GPCR mGluR2
B2: FLAG-CLIP-MRAP2 (melanocortin-2 receptor accessory protein 2) (natural protein, human, UniProt Q96G30 1-205, looked up)
chain: MSAQRLISNRTSQQSASNSDYTWEYEYYEIGPVSFEGLKAHKYSIVIGFWVGLAVFVIFMFFVLTLLTKTGAPHQDNAESSEKRFRMNSFVSDFGRPLEPDKVFSRQGNEESRSLFHCYINEVERLDRAKACHQTTALDSDVQLQEAIRSSGQPEEELNRLMKFDIPNFVNTDQNYFGEDDLLISEPPIVLETKPLSQTSHKDLD
modifications: BC-DY547 (CLIP-surface 547) dye on the CLIP tag
notes: melanocortin-2 receptor accessory protein 2 (MRAP2), human; S14 and the UBIRA repository; also called ss-FLAG-CLIP-MRAP2; source: HEK293 (AD-293), transiently transfected, in lysate (LMNG-CHS); not shown: FLAG, N-terminal, kept; CLIP, N-terminal, kept

Tests used:
[1] = target: the molecule itself; assay: single-molecule pull-down (SiMPull) with photobleaching step counting; one colour: HEK293 cells expressing the HA-Halo-tagged protein alone, labelled at the surface with membrane-impermeable CA-Sulfo646, lysed in 0.5% LMNG/0.05% CHS, immobilised by the HA tag on slides with biotinylated HA antibody, single molecules imaged by TIRF
[2] = target: T1, HA-Halo-MC3R (melanocortin-3 receptor) (human, UniProt P41968 1-323, CA-Sulfo646 dye on the Halo tag (SiMPull)); assay: single-molecule pull-down (SiMPull) with photobleaching step counting; two colours: lysate of HEK293 cells cotransfected with 300 ng HA-Halo-tagged and 600 ng FLAG-CLIP-tagged plasmid, labelled at the surface with CA-Sulfo646 and BC-DY547, lysed in 0.5% LMNG/0.05% CHS; HA-tagged protein immobilised on HA antibody; co-localised spots and bleaching steps counted by TIRF; conditions: partners not purified
T1 construct: melanocortin-3 receptor (MC3R), human; S14 and the UBIRA repository (DOI 10.25500/edata.bham.00001385); also called ss-HA-Halo-MC3R; source: HEK293 (AD-293), transiently transfected, in lysate (LMNG-CHS) or in cells; not shown: HA, N-terminal, kept; Halo, N-terminal, kept
T1 sequence (P41968 whole entry): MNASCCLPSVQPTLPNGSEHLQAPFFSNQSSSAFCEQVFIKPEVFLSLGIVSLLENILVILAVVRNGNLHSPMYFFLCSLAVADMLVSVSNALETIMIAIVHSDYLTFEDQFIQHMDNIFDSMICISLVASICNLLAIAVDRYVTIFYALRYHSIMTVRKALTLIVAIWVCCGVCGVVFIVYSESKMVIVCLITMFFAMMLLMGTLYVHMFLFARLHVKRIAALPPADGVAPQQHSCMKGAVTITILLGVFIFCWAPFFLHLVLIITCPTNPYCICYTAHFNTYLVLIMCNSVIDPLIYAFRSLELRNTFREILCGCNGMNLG

| Binder | stoichiometry N [1] | stoichiometry N [2] [MRAP2 per MC3R] |
| --- | --- | --- |
| B1 | 2 | – |
| B2 | – | 1 |
